Patent US20220152100A1, “METHODS FOR CONTROLLED ACTIVATION OR ELIMINATION OF THERAPEUTIC CELLS” (Bellicum Pharmaceuticals, Inc., priority 2014, published 2022)
Where a SMILES comes first, the peptide text is derived from it. The star is where a group is joined. Cbz = O=C(OCc1ccccc1)*; CH2F = FC*

Legend:
[1] = test system: EBV-specific CTL lines (EBV-CTL); test: CID-induced elimination/apoptosis of transduced EBV-CTLs (GFP, annexin V/7-AAD flow cytometry); format: cell-based, human; conditions: 100 μM for 1 hour prior to adding CID
HEK293T/16 cells = test: SEAP-based surrogate killing assay of iCasp9 mutants; format: cell-based, human; conditions: in words, versus wild type
Procedure: Early passage HEK293T/16 cells (ATCC, Manassas, Va.) were maintained in IMDM, GlutaMAX™ (Life Technologies, Carlsbad, Calif.) supplemented with 10% FBS, 100 U/mL penicillin, and 100 […] until transfection in a humidified, 37° C., 5% CO2/95% air atmosphere. Cells in logarithmic-phase growth were transiently transfected with 800 ng to 2 μg of expression plasmid encoding iCasp9 mutants and 500 ng of an expression plasmid encoding SRα promoter driven SEAP per million cells in 15-mL conical tubes. […] GeneJammer® Transfection Reagent at a ratio of 3 μl per ug of plasmid DNA was used to transiently transfect HEK293T/16 cells in the absence of antibiotics. 100 μl or 2 mL of the transfection mixture was added to each well in 96-well or 6-well plate, respectively.
Briefly, after 65° C. heat denaturation for 45 minutes to reduce background caused by endogenous (and serum-derived) alkaline phosphatases that are sensitive to heat, 5 μl of supernatants was added to 95 μl of PBS and added to 100 μl of substrate buffer, containing 1 μl of 100 mM 4-methylumbelliferyl phosphate (4-MUP; Sigma, St. Louis, Mo.) re-suspended in 2 M diethanolamine. Hydrolysis of 4-MUP by SEAP produces a fluorescent […] with excitation/emission (355/460 nm), which can be easily measured. Assays were performed in black opaque 96-well plates to minimize fluorescence leakage between wells. […] of the mixture was seeded onto each well of a 96-well plate. […] For the assay, 4-methylumbelliferyl phosphate substrate was hydrolyzed by SEAP to 4-methylumbelliferon, a metabolite that can be excited with 364 nm and detected with an emission filter of 448 nm. Since SEAP is used as a marker for cell viability, reduced SEAP reading corresponds with increased iCaspase-9 activities.

PG13 = format: cell-based

Row | Molecule | effect on basal / catalytic activity (HEK293T/16 cells) | further results
1 | COC(=O)C[C@H](NC(=O)[C@H](C)NC(=O)[C@@H](NC(=O)OCc1ccccc1)C(C)C)C(=O)CF [zVAD-fmk] (Cbz-Val-Ala-Asp(OMe)-CH2F) | – | effect on CID-induced apoptosis [1]: inhibited
2 | ^316ATPF^319AVPI: Caspase-9 with XIAP-binding tetrapeptide ATPF replaced by AVPI from SMAC/DIABLO (protein, UniProt P55211 1-416, looked up, variant T317V F319I, ATPF replaced by SMAC AVPI motif) MDEADRRLLRRCRLRLVEELQVDQLWDALLSRELFRPHMIEDIQRAGSGSRRDQARQLIIDLETRGSQALPLFISCLEDTGQDMLASFLRTNRQAAKLSKPTLENLTPVVLRPEIRKPEVLRPETPRPVDIGSGGFGDVGALESLRGNADLAYILSMEPCGHCLIINNVNFCRESGLRTRTGSNIDCEKLRRRFSSLHFMVEVKGDLTAKKMVLALLELAQQDHGALDCCVVVILSHGCQASHLQFPGAVYGTDGCPVSVEKIVNIFNGTSCPSLGGKPKLFFIQACGGEQKDHGFEVASTSPEDESPGSNPEPDAVPIQEGLRTFDQLDAISSLPTPSDIFVSYSTFPGFVSWRDPKSGSWYVETLDDIFEQWAHSEDLQSLLLRVANAVSVKGIYKQMPGCFNFLRKKLFFKTS | no effect | –
3 | L329K: chimeric modified Caspase-9 polypeptide (protein) VDGFGDVGALESLRGNADLAYILSMEPCGHCLIINNVNFCRESGLRTRTGSNIDCEKLRRRFSSLHFMVEVKGDLTAKKMVLALLELARQDHGALDCCVVVILSHGCQASHLQFPGAVYGTDGCPVSVEKIVNIFNGTSCPSLGGKPKLFFIQACGGEQKDHGFEVASTSPEDESPGSNPEPDATPFQEGLRTFDQKDAISSLPTPSDIFVSYSTFPGFVSWRDPKSGSWYVETLDDIFEQWAHSEDLQSLLLRVANAVSVKGIYKQMPGCFNFLRKKLFFKTSASRA | did not lower basal activity | –
4 | D330V: chimeric modified Caspase-9 polypeptide (protein) VDGFGDVGALESLRGNADLAYILSMEPCGHCLIINNVNFCRESGLRTRTGSNIDCEKLRRRFSSLHFMVEVKGDLTAKKMVLALLELARQDHGALDCCVVVILSHGCQASHLQFPGAVYGTDGCPVSVEKIVNIFNGTSCPSLGGKPKLFFIQACGGEQKDHGFEVASTSPEDESPGSNPEPDATPFQEGLRTFDQLVAISSLPTPSDIFVSYSTFPGFVSWRDPKSGSWYVETLDDIFEQWAHSEDLQSLLLRVANAVSVKGIYKQMPGCFNFLRKKLFFKTSASRA | less basal activity than wild type Caspase-9 | –
5 | D330S: chimeric modified Caspase-9 polypeptide (protein) VDGFGDVGALESLRGNADLAYILSMEPCGHCLIINNVNFCRESGLRTRTGSNIDCEKLRRRFSSLHFMVEVKGDLTAKKMVLALLELARQDHGALDCCVVVILSHGCQASHLQFPGAVYGTDGCPVSVEKIVNIFNGTSCPSLGGKPKLFFIQACGGEQKDHGFEVASTSPEDESPGSNPEPDATPFQEGLRTFDQLSAISSLPTPSDIFVSYSTFPGFVSWRDPKSGSWYVETLDDIFEQWAHSEDLQSLLLRVANAVSVKGIYKQMPGCFNFLRKKLFFKTSASRA | less basal activity than wild type Caspase-9 | –
6 | L329G: chimeric modified Caspase-9 polypeptide (protein) VDGFGDVGALESLRGNADLAYILSMEPCGHCLIINNVNFCRESGLRTRTGSNIDCEKLRRRFSSLHFMVEVKGDLTAKKMVLALLELARQDHGALDCCVVVILSHGCQASHLQFPGAVYGTDGCPVSVEKIVNIFNGTSCPSLGGKPKLFFIQACGGEQKDHGFEVASTSPEDESPGSNPEPDATPFQEGLRTFDQGDAISSLPTPSDIFVSYSTFPGFVSWRDPKSGSWYVETLDDIFEQWAHSEDLQSLLLRVANAVSVKGIYKQMPGCFNFLRKKLFFKTSASRA | did not lower basal activity | –
7 | D330G: chimeric modified Caspase-9 polypeptide (protein) VDGFGDVGALESLRGNADLAYILSMEPCGHCLIINNVNFCRESGLRTRTGSNIDCEKLRRRFSSLHFMVEVKGDLTAKKMVLALLELARQDHGALDCCVVVILSHGCQASHLQFPGAVYGTDGCPVSVEKIVNIFNGTSCPSLGGKPKLFFIQACGGEQKDHGFEVASTSPEDESPGSNPEPDATPFQEGLRTFDQLGAISSLPTPSDIFVSYSTFPGFVSWRDPKSGSWYVETLDDIFEQWAHSEDLQSLLLRVANAVSVKGIYKQMPGCFNFLRKKLFFKTSASRA | less basal activity than wild type Caspase-9 | –
8 | D330N: chimeric modified Caspase-9 polypeptide (protein) VDGFGDVGALESLRGNADLAYILSMEPCGHCLIINNVNFCRESGLRTRTGSNIDCEKLRRRFSSLHFMVEVKGDLTAKKMVLALLELARQDHGALDCCVVVILSHGCQASHLQFPGAVYGTDGCPVSVEKIVNIFNGTSCPSLGGKPKLFFIQACGGEQKDHGFEVASTSPEDESPGSNPEPDATPFQEGLRTFDQLNAISSLPTPSDIFVSYSTFPGFVSWRDPKSGSWYVETLDDIFEQWAHSEDLQSLLLRVANAVSVKGIYKQMPGCFNFLRKKLFFKTSASRA | less basal activity than wild type Caspase-9 | –
9 | A331K: chimeric modified Caspase-9 polypeptide (protein) VDGFGDVGALESLRGNADLAYILSMEPCGHCLIINNVNFCRESGLRTRTGSNIDCEKLRRRFSSLHFMVEVKGDLTAKKMVLALLELARQDHGALDCCVVVILSHGCQASHLQFPGAVYGTDGCPVSVEKIVNIFNGTSCPSLGGKPKLFFIQACGGEQKDHGFEVASTSPEDESPGSNPEPDATPFQEGLRTFDQLDKISSLPTPSDIFVSYSTFPGFVSWRDPKSGSWYVETLDDIFEQWAHSEDLQSLLLRVANAVSVKGIYKQMPGCFNFLRKKLFFKTSASRA | did not lower basal activity | –
10 | T317A: chimeric modified Caspase-9 polypeptide (protein) VDGFGDVGALESLRGNADLAYILSMEPCGHCLIINNVNFCRESGLRTRTGSNIDCEKLRRRFSSLHFMVEVKGDLTAKKMVLALLELARQDHGALDCCVVVILSHGCQASHLQFPGAVYGTDGCPVSVEKIVNIFNGTSCPSLGGKPKLFFIQACGGEQKDHGFEVASTSPEDESPGSNPEPDAAPFQEGLRTFDQLDAISSLPTPSDIFVSYSTFPGFVSWRDPKSGSWYVETLDDIFEQWAHSEDLQSLLLRVANAVSVKGIYKQMPGCFNFLRKKLFFKTSASRA | can reduce basal activity without a large shift in the IC50 | –
11 | T317C: chimeric modified Caspase-9 polypeptide (protein) VDGFGDVGALESLRGNADLAYILSMEPCGHCLIINNVNFCRESGLRTRTGSNIDCEKLRRRFSSLHFMVEVKGDLTAKKMVLALLELARQDHGALDCCVVVILSHGCQASHLQFPGAVYGTDGCPVSVEKIVNIFNGTSCPSLGGKPKLFFIQACGGEQKDHGFEVASTSPEDESPGSNPEPDACPFQEGLRTFDQLDAISSLPTPSDIFVSYSTFPGFVSWRDPKSGSWYVETLDDIFEQWAHSEDLQSLLLRVANAVSVKGIYKQMPGCFNFLRKKLFFKTSASRA | no effect | –
12 | D330E: chimeric modified Caspase-9 polypeptide, SEQ ID NO: 188 (protein) VDGFGDVGALESLRGNADLAYILSMEPCGHCLIINNVNFCRESGLRTRTGSNIDCEKLRRRFSSLHFMVEVKGDLTAKKMVLALLELARQDHGALDCCVVVILSHGCQASHLQFPGAVYGTDGCPVSVEKIVNIFNGTSCPSLGGKPKLFFIQACGGEQKDHGFEVASTSPEDESPGSNPEPDATPFQEGLRTFDQLEAISSLPTPSDIFVSYSTFPGFVSWRDPKSGSWYVETLDDIFEQWAHSEDLQSLLLRVANAVSVKGIYKQMPGCFNFLRKKLFFKTSASRA | less basal activity than wild type Caspase-9 | CD19 mean fluorescence intensity (MFI) (PG13; PG13 cross-transduced five times): enhanced CD19 mean fluorescence intensity; viral titers (PG13; upon HAT media treatment, HT1080 cells): higher viral titers
